# Measurements published in patent publication US20230265151A1, “GIP/GLP1 CO-AGONIST COMPOUNDS” (priority 2020, published 2023).
# Positions count from the first letter of the chain named.
# T1: human GIP receptor (human, UniProt P48546 22-466)
# T1 construct: whole, on cells; also called hGIPR; human glucose-dependent insulinotropic polypeptide receptor
# T1 sequence (looked up): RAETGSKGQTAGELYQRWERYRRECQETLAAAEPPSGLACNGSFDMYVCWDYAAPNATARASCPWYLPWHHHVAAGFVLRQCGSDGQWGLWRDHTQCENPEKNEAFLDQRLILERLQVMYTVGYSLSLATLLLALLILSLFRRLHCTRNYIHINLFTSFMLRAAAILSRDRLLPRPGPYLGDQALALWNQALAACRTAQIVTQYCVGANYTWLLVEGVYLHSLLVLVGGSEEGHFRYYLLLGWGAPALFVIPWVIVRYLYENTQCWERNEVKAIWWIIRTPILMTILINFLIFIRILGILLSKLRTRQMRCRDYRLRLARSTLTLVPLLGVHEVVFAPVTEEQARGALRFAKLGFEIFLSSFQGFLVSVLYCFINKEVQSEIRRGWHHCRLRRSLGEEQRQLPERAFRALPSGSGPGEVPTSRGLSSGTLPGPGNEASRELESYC
# B1: Y-Aib-EGT-αMeF(2F)-TSD-4Pal-SI-αMeL-LD-Orn-K((2-[2-(2-Amino-ethoxy)-ethoxy]-acetyl)2-(γ-Glu)-CO-(CH2)10-CH3)AQ-Aib-EFI-(D-Glu)-αMeY-LIEGGK((2-[2-(2-Amino-ethoxy … (peptide)
# peptide: YXEGTXTSDXSIXLDXKAQXEFIXXLIEGGKSSGAPPPS
# modifications: Aib2, αMeF(2F)6, 4Pal10, αMeL13, Orn16, K17(Z1), Aib20, D-Glu24, αMeY25, K31(Z1), C-term NH2; Z1=AEEA2-(γ-Glu)-CO-(CH2)10-CH3
# B2: Y-Aib-EGT-αMeF(2F)-TSD-1Nal-SI-αMeL-LD-Orn-K((2-[2-(2-Amino-ethoxy)-ethoxy]-acetyl)2-(γ-Glu)-CO-(CH2)12-CO2H)AQ-Aib-EFI-(D-Glu)-αMeY-LIEGGK((2-[2-(2-Amino-ethox … (peptide)
# peptide: B1 peptide
# modifications: Aib2, αMeF(2F)6, 1Nal10, αMeL13, Orn16, K17(Z1), Aib20, D-Glu24, αMeY25, K31(Z1), C-term NH2; Z1=AEEA2-(γ-Glu)-CO-(CH2)12-CO2H
# B3: Y-Aib-EGT-αMeF(2F)-TSD-hTyr-SI-αMeL-LD-Orn-K((2-[2-(2-Amino-ethoxy)-ethoxy]-acetyl)2-(γ-Glu)-CO-(CH2)12-CO2H)AQ-Aib-EFI-(D-Glu)-αMeY-LIEGGK((2-[2-(2-Amino-ethox … (peptide)
# peptide: B1 peptide
# modifications: Aib2, αMeF(2F)6, hTyr10, αMeL13, Orn16, K17(Z1), Aib20, D-Glu24, αMeY25, K31(Z1), C-term NH2; Z1=AEEA2-(γ-Glu)-CO-(CH2)12-CO2H
# B4: Y-Aib-EGT-αMeF(2F)-TSD-4Pal-SI-αMeL-LD-Orn-K((γ-Glu)-(2-[2-(2-Amino-ethoxy)-ethoxy]-acetyl)-CO-(CH2)12-CO2H)AQ-Aib-EFI-(D-Glu)-αMeY-LIEGGK((γ-Glu)-(2-[2-(2-Amin … (peptide)
# peptide: B1 peptide
# modifications: Aib2, αMeF(2F)6, 4Pal10, αMeL13, Orn16, K17(Z1), Aib20, D-Glu24, αMeY25, K31(Z1), C-term NH2; Z1=(γ-Glu)-AEEA-CO-(CH2)12-CO2H
# B5: Y-Aib-EGT-αMeF(2F)-TSD-4Pal-Aib-I-αMeL-LD-Orn-K((2-[2-(2-Amino-ethoxy)-ethoxy]-acetyl)-(γ-Glu)-(10-(4-carboxyphenoxy)decanoyl))AQ-Aib-EFIe-αMeY-LIK((2-[2-(2-Ami … (peptide)
# peptide: B1 peptide with S11X, E28K, K31P
# modifications: Aib2, αMeF(2F)6, 4Pal10, Aib11, αMeL13, Orn16, K17(Z1), Aib20, D-Glu24 (printed e), αMeY25, K28(Z1), C-term NH2; Z1=AEEA-(γ-Glu)-(10-(4-carboxyphenoxy)decanoyl)
# B6: Y-Aib-EGT-αMeF-TSD-4Pal-SI-αMeL-LD-Orn-K((2-[2-(2-Amino-ethoxy)-ethoxy]-acetyl)2-(γ-Glu)-CO-(CH2)12-CO2H)AQ-Aib-E-αMeF-I-(D-Glu)-αMeY-LIEGGK((2-[2-(2-Amino-etho … (peptide)
# peptide: B1 peptide with F22X
# modifications: Aib2, αMeF6, 4Pal10, αMeL13, Orn16, K17(Z1), Aib20, αMeF22, D-Glu24, αMeY25, K31(Z1), C-term NH2; Z1=AEEA2-(γ-Glu)-CO-(CH2)12-CO2H
# B7: Y-Aib-EGT-αMeF(2F)-TSD-Ac5c-SI-αMeL-LD-Orn-K((2-[2-(2-Amino-ethoxy)-ethoxy]-acetyl)2-(γ-Glu)-CO-(CH2)12-CO2H)AQ-Aib-EFI-(D-Glu)-αMeY-LIEGGK((2-[2-(2-Amino-ethox … (peptide)
# peptide: B1 peptide
# modifications: Aib2, αMeF(2F)6, Ac5c10, αMeL13, Orn16, K17(Z1), Aib20, D-Glu24, αMeY25, K31(Z1), C-term NH2; Z1=AEEA2-(γ-Glu)-CO-(CH2)12-CO2H
# B8: Y-Aib-EGT-αMeF(2F)-TSDK((2-[2-(2-Amino-ethoxy)-ethoxy]-acetyl)2-(γ-Glu)-CO-(CH2)10-CH3)-Aib-I-αMeL-LD-Orn-K((2-[2-(2-Amino-ethoxy)-ethoxy]-acetyl)2-(γ-Glu)-CO-( … (peptide)
# peptide: B1 peptide with X10K, S11X, K31P
# modifications: Aib2, αMeF(2F)6, K10(Z1), Aib11, αMeL13, Orn16, K17(Z1), Aib20, D-Glu24, αMeY25, C-term NH2; Z1=AEEA2-(γ-Glu)-CO-(CH2)10-CH3
# B9: Y-Aib-EGT-aMeF(2F)-TSD-4Pal-Aib-I-aMeL-LD-Orn-K((2-[2-(2-Amino-ethoxy)-ethoxy]-acetyl)2-(γ-Glu)-CO-(CH2)10-CH3)AQ-Aib-GFIe-aMeY-LIK((2-[2-(2-Amino-ethoxy)-ethox … (peptide)
# peptide: B1 peptide with S11X, E21G, E28K, K31P
# modifications: Aib2, αMeF(2F)6, 4Pal10, Aib11, αMeL13, Orn16, K17(Z1), Aib20, D-Glu24 (printed e), αMeY25, K28(Z1), C-term NH2; Z1=AEEA2-(γ-Glu)-CO-(CH2)10-CH3
# notes: G at position 21
# B10: Y-Aib-EGT-αMeF(2F)-TSD-4Pal-Aib-I-αMeL-LD-Orn-K((2-[2-(2-Amino-ethoxy)-ethoxy]-acetyl)3-(γ-Glu)-CO-(CH2)10-CH3)AQ-Aib-K((2-[2-(2-Amino-ethoxy)-ethoxy]-acetyl)3- … (peptide)
# peptide: B1 peptide with S11X, E21K, K31P
# modifications: Aib2, αMeF(2F)6, 4Pal10, Aib11, αMeL13, Orn16, K17(Z1), Aib20, K21(Z1), D-Glu24, αMeY25, C-term NH2; Z1=AEEA3-(γ-Glu)-CO-(CH2)10-CH3
# Biological target: T2, human glucagon receptor (human, UniProt P47871 26-477)
# T2 construct: whole, on cells; also called hGCGR; hGcgR
# Assay: SPA competition vs [125I]-Gcg, hGcgR membranes
# Procedure: The binding buffer contains 25 mM 4-(2-hydroxyethyl)-1-piperazineethanesulfonic acid (HEPES), pH 7.4, 2.5 mM CaCl₂, 1 mM MgCh, 0.1% (w/v) bacitracin (Research Products), 0.003% (w/v) Polyoxyethylenesorbitan monolaurate (TWEEN®-20), and Roche Complete™ Protease Inhibitors without EDTA. […] Plates are sealed and mixed on a plate shaker (setting 6) for 1 minute and read with a PerkinElmer Trilux MicroBeta® scintillation counter after 12 hours of incubation/settling time at room temperature.
# Data are analyzed using four-parameter (curve maximum, curve minimum, IC₅₀, Hill slope) nonlinear regression routines (Genedata Screener, version 12.0.4, Genedata AG, Basal, Switzerland). […] Values for Kᵢ are reported as the geometric mean, with error expressed as the standard error of the mean (SEM) and n is equal to the number of independent replicates (determined in assays performed on different days).
# T2 sequence (P47871 26-477): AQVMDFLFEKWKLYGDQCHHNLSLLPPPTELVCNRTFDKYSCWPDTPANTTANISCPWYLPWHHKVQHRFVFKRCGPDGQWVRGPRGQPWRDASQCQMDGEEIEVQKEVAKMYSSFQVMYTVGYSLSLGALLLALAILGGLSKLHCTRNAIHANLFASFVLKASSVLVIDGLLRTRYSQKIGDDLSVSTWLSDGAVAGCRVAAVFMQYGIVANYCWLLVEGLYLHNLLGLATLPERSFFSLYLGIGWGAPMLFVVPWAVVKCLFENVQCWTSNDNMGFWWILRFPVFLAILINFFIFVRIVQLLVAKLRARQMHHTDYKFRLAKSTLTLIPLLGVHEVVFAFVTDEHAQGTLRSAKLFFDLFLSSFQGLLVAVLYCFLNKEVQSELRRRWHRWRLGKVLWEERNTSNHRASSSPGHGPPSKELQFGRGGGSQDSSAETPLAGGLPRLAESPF
row,Binder,Ki
1,B1,44.8 nM
2,B2,137 nM
3,B3,2000 nM
4,B4,458 nM
5,B5,238 nM
6,B6,217 nM
7,B7,274 nM
8,B8,132 nM
9,B9,135 nM
10,B10,12.2 nM

# Biological target: T3, human GLP-1 receptor (human, UniProt P43220 24-463)
# T3 construct: whole, on cells; also called hGLP-1R; human glucagon-like peptide-1 receptor
# Assay: SPA competition vs [125I]-GLP-1, hGLP-1R membranes
# Summary of the method: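 Competition binding in 25 mM HEPES pH 7.4, 2.5 mM CaCl₂, 1 mM MgCl₂, 0.1% bacitracin, 0.003% TWEEN-20, EDTA-free protease inhibitors. IC₅₀ from four-parameter nonlinear fit; Kᵢ given as geometric mean ± SEM, n = independent replicates on different days.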
row,Binder,Ki
1,B1,0.154 nM
2,B2,2.85 nM
3,B3,0.789 nM
4,B4,2.02 nM
5,B5,1.22 nM
6,B6,29 nM
7,B7,1.46 nM
8,B8,0.289 nM
9,B9,0.188 nM
10,B10,0.194 nM

# Biological target: T1, human GIP receptor
# Assay: SPA competition vs [125I]-GIP, hGIPR membranes
row,Binder,Ki
1,B1,0.0309 nM
2,B2,0.152 nM
3,B3,0.171 nM
4,B4,0.0759 nM
5,B5,0.0578 nM
6,B6,0.0761 nM
7,B7,0.085 nM
8,B8,0.0161 nM
9,B9,0.0197 nM
10,B10,0.0218 nM
